Source: patent US20220380801A1, “TRIPARTITE SYSTEMS FOR PROTEIN DIMERIZATION AND METHODS OF USE” (priority 2019, published 2022)

B1: PRSIM_75: scFv PRSIM binding molecule, SEQ ID NO: 15 (protein)
scFv: EVQLVQSGAEVKKPGSSVKVSCKASGGSFNSYTLDWVRQAPGQGLEWMGGIIPVFGSPNYGQKFQGRVTITADESTSTAYMELSSLKSDDTAVYYCARGLVYQPLDSWGRGTLVTVSSGGGGSGGGGSGGGGSAQAVLTQPSSASGTPGQRVTISCSGSSSNIGSYTVNWYQQFPGTAPKLLIYSNTQRPSGVPDRFSGSKSGTSASLAISGLQSEDEADYYCAAWDDSLNGWVFGGGTKVTVL
modifications: PRSIM_75
B2: PRSIM_04: scFv PRSIM binding molecule, SEQ ID NO: 11 (protein)
scFv: QVQLVQSGAEVKKPGSSVKVSCKASGGTFSSYAISWVRQAPGQGLEWMGGIIPIFGTANYAQKFQGRVTITADESTSTAYMELSSLRSEDTAVYYCARGMAHFYQFDLWGQGTLVTVSSGGGGSGGGGSGGGGSAQSVLTQPPSASGTPGQRVTISCSGSSSNIGSNTVNWYQQLPGTAPKLLIYSNNQRPSGVPDRFSGSKSGTSASLAISGLQSEDEADYYCAAGDHDHEHVVFGGGTKLTVL
modifications: PRSIM_04
B3: PRSIM_72: scFv PRSIM binding molecule, SEQ ID NO: 14 (protein)
scFv: B2 scFv
modifications: PRSIM_72
B4: PRSIM_67: scFv PRSIM binding molecule, SEQ ID NO: 13 (protein)
scFv: EVQLVQSGAEVKKPGAAVRISCKTSGYVFTSYYVHWVRQAPGQGLEWMGVINPSGGNTNYAQKFQDRVTMTRDTSTTTVYMELSSLMFDDTAVYYCAKRDYGGPLANWGRGTLVTVSSGGGGSGGGGSGGGGSALSYELTQPPSVSEAPRQRVTISCSGSSSNIGNNAVNWYQQLPGKAPKLLIFYDDLLPSGVSDRFSGSKSGTSASLAISGLQSEDEADYYCAAWDDSLNGLVFGTGTKLTVL
modifications: PRSIM_67
B5: PRSIM_57: scFv specific for HCV NS3/4A PR (S139A):simeprevir complex, SEQ ID NO: 12 (protein)
scFv: QVQLVQSGAEVKKPGSSVKVSCKASGGTFSSYAISWVRQAPGQGLEWMGGIIPIFGTANYAQKFQGRVTITADESTSTAYMELSSLRSEDTAVYYCARHTNYITVFDYWGQGTLVTVSSGGGGSGGGGSGGGGSAQSVLTQPPSASGTPGQRVTISCSGSSSNIGSNTVNWYQQLPGTAPKLLIYSNNQRPSGVPDRFSGSKSGTSASLAISGLQSEDEADYYCAAWDHHWEQVVFGGGTKLTVL
modifications: PRSIM_57
B6: PRSIM_23: Tn3 protein specific for HCV NS3/4A PR (S139A):simeprevir complex, SEQ ID NO: 5 (protein)
chain: RLDAPSQIEVKDVTDTTALITWVDPRYDDIWWFELTYGIKDVPGDRTTIKLYLNDPYYSIGNLKPDTEYEVSLISYTGDSYSRSGSNPAKITFKTGL
modifications: PRSIM_23
B7: PRSIM_33: Tn3 PRSIM binding molecule, SEQ ID NO: 7 (protein)
chain: RLDAPSQIEVKDVTDTTALITWYPPGRWYDDIWYFELTYGIKDVPGDRTTIKLARGDDVYSIGNLKPDTEYEVSLISWGPDRGDRAGSNPAKITFKTGL
modifications: PRSIM_33

target: T1, HCV NS3/4A PR (S139A) (Hepatitis C virus subtype 1a, UniProt A8DG50, A1066T/I1043Q/I1044E/L1039E/L1040E/L1047Q/S1165A, form not given); experiment: Phage ELISA; type: binding; details: phage ELISA signal with simeprevir divided by signal without simeprevir
Protocol: Specific binding to HCV NS3/4A PR (S139A) was assessed by phage ELISA using single phagemid scFv or Tn3 clones induced for expression as described ((Osbourn et al. 1996)). Briefly, individual TG1 colonies encoding phage clones from round 3 and round 4 selection outputs, and negative control clones, were grown in 96 well plates at […] shaking at 280 rpm to log phase in media containing 100 μg/ml ampicillin and 2% (w/v) glucose. Helper phage was then added to each well and the plates incubated at […] for 1 hour, shaking at 150 rpm. Plates were then centrifuged at 4500 rpm for 10 minutes at room temperature and the media was removed and replaced with media containing 100 μg/ml ampicillin and 50 μg/ml kanamycin. Plates were then incubated overnight at 25° C., shaking at 280 rpm. The following day, phage preparations were blocked by adding an equal volume of 2×PBS containing 6% (w/v) skimmed milk powder (Marvel) to each well of the plate.
Biotinylated HCV NS3/4A PR (S139A) was used to coat 96 well streptavidin-coated plates at 5 μg/ml […] in the presence and absence of a 3-fold excess of simeprevir (5.6 μM). Coated plates were washed with PBS and blocked with PBS containing 3% (w/v) skimmed milk powder (Marvel) for one hour. Following this blocking step, the plate wells were washed three times with PBS, prior to adding the blocked phage preps (produced as described in the phage rescue section). Phage preps were incubated with the antigens for 1 hour at room temperature prior to washing three times with PBS/Tween 20 (0.1% v/v). Phage that bound specifically to the antigen coated plate were detected using an anti-M13 phage-HRP tagged antibody (GE Healthcare), followed by detection using 3,3′, 5,5′-Tetramethylbenzidine (TMB; Sigma). The detection reaction was stopped using 0.5 M H2S04 and plates were read using a […] at 450 nm. Fluorescent readings determined for each clone binding to biotinylated HCV NS3/4A PR (S139A) in the presence of simeprevir was compared to those binding in the absence of simeprevir, by dividing the signal observed in the presence of simeprevir to the signal observed in the absence of simeprevir.

Row | Molecule | Binding fold change [(HCV protease + Simeprevir binding)/HCV protease alone]
1 | B1 | 6.9
2 | B2 | 30.3
3 | B3 | 12.5
4 | B4 | 12.7
5 | B5 | 15.7
6 | B6 | 23.8

target: T1, HCV NS3/4A PR (S139A); experiment: HTRF binding screen; details: in the presence of simeprevir
Protocol: scFv and Tn3 PRSIM binding molecules that were selective for the HCV NS3/4A PR (S139A) were identified in homogeneous time-resolved fluorescence (HTRF®) assays run in parallel to measure binding in the presence and absence of simeprevir. HCV NS3/4A PR (S139A), and serial dilutions of purified PRSIM binding molecules, were prepared in assay buffer (PBS containing 0.4 M potassium fluoride and 0.1% BSA). Streptavidin cryptate (Cisbio) was pre-mixed with either anti-FLAG XL665 (to detect the Tn3 molecules) or anti-c-myc XL665 (to detect the scFv molecules) in assay buffer. For each assay 2.5 μl of sample titration was added to 2.5 μl HCV NS3/4A PR (S139A) and 2.5 μl of pre-mixed detection reagents. Either 2.5 μl simeprevir or 2.5 μl of a DMSO blank were also added to each well. Background was defined using wells with zero sample addition. Assay plates were incubated overnight at 4° C., prior to reading the time resolved fluorescence at 620 nm and 665 nm emission wavelengths using a PerkinElmer Envision plate reader. Data was analysed by calculating % Delta F values for each sample. Delta F was determined according to equation 1.
% Delta F=((sample 665 nm/620 nm ratio value)−(background 665 nm/620 nm ratio value)/(background 665 nm/620 nm ratio value))×100 Equation 1
Selective binding molecules are defined as those scFv and Tn3 PRSIM binding molecules that bind to HCV NS3/4A PR (S139A) in complex with simeprevir and no binding to HCV NS3/4A PR (S139A).

Row | Molecule | HTRF max. signal (% delta F)
7 | B1 | 1030 % delta F
8 | B2 | 1055 % delta F
9 | B3 | 1107 % delta F
10 | B4 | 1708 % delta F
11 | B7 | 1704 % delta F
12 | B5 | 1076 % delta F
13 | B6 | 1573 % delta F

target: BSA (Bos taurus, UniProt P02769); experiment: Biacore 8K BSA control; type: binding; parameters: key: # = no binding; * = minimal non-specific binding; details: 10 nM simeprevir present
Protocol: The HCV NS3/4A PR (S139A), or BSA control, was diluted 1:4 (1.25-20 nM)±10 nM simeprevir in 10 mM Hepes pH 7.4, 150 mM NaCl, 0.05% Surfactant P20, 0.01% DMSO, ensuring constant simeprevir and DMSO concentration. The samples were flowed over the chip at 50 μl/min using single cycle kinetics, with 120 sec association and 600 sec dissociation. The chip surface was regenerated with two 20 sec pulses of 10 mM Glycine-HCl pH 3.0. The final sensorgrams were analysed using the Biacore 8K Evaluation Software and the affinity constant KD was determined using a 1:1 binding model. The same method was used for measuring the affinity of the HCV NS3/4A PR mutants for PRSIM_23 with minor deviations. The mutants were diluted 1:4 (2.5-40 nM)±simeprevir in 10 mM Hepes pH 7.4, 150 mM NaCl, 0.05% Surfactant P20, 0.08% DMSO, ensuring constant simeprevir and DMSO concentration. The samples were flowed over the chip at 50 μl/min using single cycle kinetics, with 180 sec association and 600 sec dissociation.

Row | Molecule | BSA control
14 | B1 | #
15 | B2 | #
16 | B3 | #
17 | B4 | #
18 | B7 | #
19 | B5 | #
20 | B6 | #
